The target of series [1] is T1, chimp FOXP2 (truncated, WT) (chimpanzee, UniProt Q8MJA0 215-716).
T1 sequence: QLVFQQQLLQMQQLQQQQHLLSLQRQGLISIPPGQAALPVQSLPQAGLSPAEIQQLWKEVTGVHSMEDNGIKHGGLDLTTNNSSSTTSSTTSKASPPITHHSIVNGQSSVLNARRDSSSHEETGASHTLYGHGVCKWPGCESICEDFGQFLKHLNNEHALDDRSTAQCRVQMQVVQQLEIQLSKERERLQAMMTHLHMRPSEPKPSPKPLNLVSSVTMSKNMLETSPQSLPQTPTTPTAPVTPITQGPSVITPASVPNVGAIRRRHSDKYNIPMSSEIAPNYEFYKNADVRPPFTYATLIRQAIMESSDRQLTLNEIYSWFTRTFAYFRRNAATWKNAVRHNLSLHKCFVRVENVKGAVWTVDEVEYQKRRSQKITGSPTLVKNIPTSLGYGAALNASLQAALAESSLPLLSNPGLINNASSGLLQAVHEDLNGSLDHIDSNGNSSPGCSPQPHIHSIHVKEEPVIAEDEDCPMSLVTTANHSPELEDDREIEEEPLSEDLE
The experiment in a line: MITOMI.

Series [2] deals with T2, human FOXP2 (truncated, WT) (human, UniProt O15409 214-715).
T2 sequence: T1 sequence with T90N, N112S
Nature of the series: MITOMI.

Changes are numbered by the printed parent chain.

Consider one molecule from publication PMC3695516.

B1: oligonucleotide #175 (dsDNA)
DNA 1: CGCCTGTTACGGCATCAGGGCTTTGGTTTGGGCGGGCTGCTTGTTTACCAATTGTCTCCGGCGGTATGAC
DNA 2: GTCATACCGCCGGAGACAATTGGTAAACAAGCAGCCCGCCCAAACCAAAGCCCTGATGCCGTAACAGGCG
For B1, the binding result in series [1] and in series [2] was “binds” throughout.
